Measurements from US12312397B2, “Anti-O2 antibodies and uses thereof” (priority 2016, dated 2025).

How the values were obtained:
KPC strain Kp977778_O2 = test: Lethal pneumonia model, KPC strain Kp977778_O2; format: in vivo, Klebsiella pneumoniae; details: C57/BL6 mice, 3e8 CFU; mAb 2 mg/kg 1 hour post infection; survival
Experimental: (§1) C57/BL6 mice were obtained from Jackson Laboratories and maintained in a special pathogen-free facility. All animal experiments were conducted in accordance with Institutional Animal Care and Use Committee (IACUC) protocol and guidance. K. pneumoniae strains were grown on agar plates overnight and diluted in saline at proper concentration. The inoculum titer was determined by plating a serial dilution of bacteria onto agar plates prior to and post challenge. In acute pneumonia models, C57/BL6 mice were inoculated with 1e4 to 2e8 colony-forming units (CFU) of K. pneumoniae clinical isolates in 50 μl saline intranasally. Anti-K pneumoniae monoclonal antibodies (mAbs) and human IgG1 control antibodies were given 1-24 hour post bacterial challenge (therapeutic dosing). Mouse survival was monitored daily until up to day 8. Survival data of representative experiments were plotted in Graphpad Prism software.
(§2) Mice were challenged with 2e8 CFU of Klebsiella pneumoniae Carbanpenemase (KPC) strain Kp961842_O2 or with 3e8 CFU of KPC strain Kp977778_O2, followed by the administration of anti-O2 mAbs. When administered at a concentration of 2 mg/kg 1 hour post bacterial infection, Class III anti-O2 LPS mAbs KPN42, KPN179-IgG1, and KPS44v2017 protected mice from lethal bacterial challenge with the multi-drug resistant KPC strains Kp961842_O2 (FIG. 6, left panel, and FIG. 10) and Kp977778_O2 (FIG. 6B, right panel).

[1] = tested on: O1 LPS activation of NF-κB in RAW264.7-lux cells; test: LPS neutralization assay (NF-κB luciferase, RAW264.7-lux), O1 LPS; format: cell-based, murine; details: secondary screening
Outline: (§3)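 Serially diluted mAbs (human IgG1) pre-mixed 1:1 with LPS at 4 °C for 1 hr, then diluted 1:10 onto RAW264.7-lux cells carrying an NF-κB-driven firefly luciferase; 2.5 h at 37 °C. Luminescence read; % inhibition relative to no-antibody and negative-control mAb wells.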

KPC strain Kp961842_O2 = test: Lethal pneumonia model, KPC strain Kp961842_O2; format: in vivo, Klebsiella pneumoniae; details: C57/BL6 mice, 2e8 CFU; mAb 2 mg/kg 1 hour post infection; survival
Experimental: as §1, §2

O2 LPS = test: Octet binding assay, O2 LPS; design: species or system Klebsiella pneumoniae; details: average; calculated from on-rate and off-rate of Octet sensorgram; read-out: affinity constant (KD) to O2 LPS
Experimental: The interaction of anti-O2 LPS mAbs with O1 and O2 LPS was further tested in solution phase by Octet platform. This platform provides a powerful tool to measure the rate of biomolecular complex formation and complex stability in a more biologically meaningful setting. Briefly, Protein A coated sensors were coated with 0.2 μg/mL anti-O2 LPS mAbs for 10 minutes before being dipped into solution containing 2 μg/mL O1 or O2 LPS in Kinetics buffer (ForteBio, dilute 10× to 1× with PBS). Changes in the number of molecules bound to the biosensor caused a shift in the interference pattern that was recorded in real time. […] The affinity constant (KD) of Class III mAbs to O2 LPS was calculated based on the on-rate and off-rate from Octet sensorgram.

[2] = tested on: O2 LPS activation of NF-κB in RAW264.7-lux cells; test: LPS neutralization assay (NF-κB luciferase, RAW264.7-lux), O2 LPS; format: cell-based, murine; design: key to LPS Neut O2: +++: Strongly positive activity; +: Positive activity; +/−: Somewhat positive depending upon the test conditions
Outline: as §3

O1 LPS = test: ELISA binding to O1 LPS; design: species or system Klebsiella pneumoniae; details: secondary screening
Outline: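 Serial dilutions of monoclonal antibodies bound to LPS-coated plates for 1 h at room temperature, detected with alkaline phosphatase-conjugated anti-human IgG (1 h) and pNPP substrate (30 min). Absorbance read at 405 nm; EC50 values derived from binding curves.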

B1: KPN179: Class III anti-O2 antigen human mAb; VH SEQ ID NO: 53, VL SEQ ID NO: 54 (antibody, V domains shown)
VH: EVQVVESGGGLVKPGGSLRLSCAASGFTFNNAWMNWVRQAPGKGLEWVGRIKRKADGETTDYPASVKGRFTVSRDDSKNTIYLQMNSLKTEDTAIYYCTTRIVTTNDYWGQGTLVTVSS
VL: QSALTQPPSVSGSPGQSVTISCTGTSSDVGYYDYVSWYQQHHPGKAPKHMIYDVNKRPSGVPDRFSGSKSGNTASLTISGLQAEDEADYYCCSYAGGDTFVFGTGTKVTVL
modifications: Description of Artificial Sequence: SyntheticKPN179 VH polypeptide; Description of Artificial Sequence: SyntheticKPN179 VL polypeptide
protection from lethal bacterial challenge, Kp977778_O2 (KPC strain Kp977778_O2): protected
neutralization of LPS-O1 [1]: did not show LPS-neutralizing activity
protection from lethal bacterial challenge, Kp961842_O2 (KPC strain Kp961842_O2): protected
Kd (O2 LPS): 7.98 nM
LPS Neut O2 ([2]; Table 7 summary): +/−
neutralization of LPS-O2 ([2]; secondary screening): did not show LPS-neutralizing activity
binding to LPS-O1 (O1 LPS): bind
